Measured values reported in US7572574B2, “Method of measuring neprilysin activity” (Riken, priority 2002, dated 2009).

Molecular target: T1, neprilysin (Mus musculus, UniProt Q61391)
T1 construct: endogenous in cells; host or cells: mouse fetal cerebral cortex and hippocampus primary cultured nerve cells, paraformaldehyde-fixed
T1 sequence (Q61391 1-750): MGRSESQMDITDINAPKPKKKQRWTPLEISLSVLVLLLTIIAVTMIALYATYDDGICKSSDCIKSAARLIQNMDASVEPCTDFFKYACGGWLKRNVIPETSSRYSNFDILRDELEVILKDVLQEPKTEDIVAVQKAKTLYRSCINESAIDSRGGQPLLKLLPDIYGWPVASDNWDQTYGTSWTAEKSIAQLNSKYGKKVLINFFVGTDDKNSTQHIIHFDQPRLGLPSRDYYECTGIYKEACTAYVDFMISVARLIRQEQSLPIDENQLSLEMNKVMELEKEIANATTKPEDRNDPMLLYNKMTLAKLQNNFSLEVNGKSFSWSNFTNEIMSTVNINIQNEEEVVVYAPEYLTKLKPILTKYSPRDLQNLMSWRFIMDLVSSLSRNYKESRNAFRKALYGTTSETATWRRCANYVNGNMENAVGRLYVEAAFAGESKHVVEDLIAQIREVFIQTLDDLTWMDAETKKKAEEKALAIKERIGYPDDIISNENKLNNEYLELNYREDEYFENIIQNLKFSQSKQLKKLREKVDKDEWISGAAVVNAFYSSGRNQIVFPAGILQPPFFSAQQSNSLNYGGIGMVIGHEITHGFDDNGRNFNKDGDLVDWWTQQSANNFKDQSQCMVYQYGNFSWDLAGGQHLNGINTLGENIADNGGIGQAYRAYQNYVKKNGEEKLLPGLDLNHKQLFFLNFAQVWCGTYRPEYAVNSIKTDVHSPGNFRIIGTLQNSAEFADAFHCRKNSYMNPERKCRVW
Assay: Neprilysin activity staining in mouse primary cultured nerve cells (fluorescent substrate, confocal microscopy)
Type: cell-based
Details: for action against the neprilysin activity or its gene expression: general statement in the description
Procedure: Nerve cells were prepared from the mouse fetal cerebral cortex and hippocampus and seeded on a poly-L-coated chamber slide (8 chambers, IWAKI 4730-040) at a density of 1×10^5 cells/chamber, followed by incubation for 7 days. After completion of the incubation, the cells were washed with TBS (pH 7.4) and fixed for 12.5 minutes at 20° C. with a paraformaldehyde solution (1.5% paraformaldehyde/50 mM phosphate buffer, pH 6.8). After the cells were washed twice with TBS, 0.2 ml of substrate solution (glutaryl-alanyl-alanyl-phenylalanyl-4-methoxy-2-naphthylamide, Sigma G3769, fmal concentration: 0.5 mM; 0.05 M Tris-HCI buffer, pH 7.4 (pH was adjusted to 7.4 at 4° C.)) was added to the cells, followed by reacting at 4° C. for 48 hours. After completion of the reaction, 25 μl of the solution mixture of aminopeptidase (Sigma L-5006, final concentration: 20.4 μg/ml) and phosphoramidone (Peptide Inst. 4082, final concentration: 10 μM) and 25 μl of nitrosalicylaldehyde solution (6 mM) were further added thereto sequentially. The mixture was reacted at 37° C. for 30 minutes. The reaction was completed by washing the cells twice with TBS. Using argon laser and a filter for rhodamine, positive stained images were observed under a confocal laser scanning microscope (FIG. 1). When the substrate is degraded by neprilysin, an insoluble fluorescent reaction product is formed so that the sites where neprilysin is present are visualized in yellow.
Nerve cells were prepared from the mouse fetal cerebral cortex and hippocampus, followed by incubation as in EXAMPLE 1. On day 7 of the incubation, somatostatin (somatostatin 14 and 28, final concentration: 1 μM) was added to the cells, followed by incubation for further 24 hours. […] To investigate in further detail, these stained images were quantified by image analysis software (Nippon Roper Co., Ltd., MetaVue) and examined.

action against the neprilysin activity or its gene expression	neprilysin activity in the nerve cells compared to control added with no peptide (mouse fetal cerebral cortex and hippocampus primary nerve cells, peptide final concentration 1 μM, 24 hours, stained images observed)	Substance
inhibitorily acts	markedly decreased	PACAP: pituitary adenylate cyclase-activating polypeptide, publicly known neuropeptide
inhibitorily acts		VIP: vasoactive intestinal peptide, publicly known neuropeptide
